Tests used:
[1] = target: T1, HA-NP (HA-tagged EBOV nucleoprotein) (Zaire ebolavirus (EBOV), UniProt P18272 1-739); assay: co-IP; details: partners not purified
T1 sequence: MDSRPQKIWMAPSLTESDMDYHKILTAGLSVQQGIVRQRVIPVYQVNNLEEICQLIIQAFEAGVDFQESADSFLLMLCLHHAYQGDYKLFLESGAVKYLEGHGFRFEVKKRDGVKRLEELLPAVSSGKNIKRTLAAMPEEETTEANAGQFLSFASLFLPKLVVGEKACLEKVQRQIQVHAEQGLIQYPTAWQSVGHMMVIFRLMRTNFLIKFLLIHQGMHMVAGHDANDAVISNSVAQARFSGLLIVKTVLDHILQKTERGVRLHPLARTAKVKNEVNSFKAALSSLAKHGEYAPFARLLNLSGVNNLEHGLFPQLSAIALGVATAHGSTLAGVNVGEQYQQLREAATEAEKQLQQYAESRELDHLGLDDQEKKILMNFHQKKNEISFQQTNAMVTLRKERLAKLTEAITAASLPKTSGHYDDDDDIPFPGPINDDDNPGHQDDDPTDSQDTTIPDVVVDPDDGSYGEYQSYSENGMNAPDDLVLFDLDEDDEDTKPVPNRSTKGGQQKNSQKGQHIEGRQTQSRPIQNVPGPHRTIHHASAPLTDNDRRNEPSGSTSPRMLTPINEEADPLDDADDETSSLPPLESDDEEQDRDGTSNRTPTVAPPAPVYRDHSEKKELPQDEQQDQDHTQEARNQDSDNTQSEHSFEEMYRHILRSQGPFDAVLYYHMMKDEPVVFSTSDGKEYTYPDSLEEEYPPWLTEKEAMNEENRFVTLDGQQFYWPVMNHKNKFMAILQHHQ

[2] = target: T1, HA-NP (HA-tagged EBOV nucleoprotein); assay: pull-down; details: one partner purified

B1: untagged EBOV VP35 wild type (natural protein)
chain: MTTRTKGRGHTAATTQNDRMPGPELSGWISEQLMTGRIPVSDIFCDIENNPGLCYASQMQQTKPNPKTRNSQTQTDPICNHSFEEVVQTLASLATVVQQQTIASESLEQRITSLENGLKPVYDMAKTISSLNRVCAEMVAKYDLLVMTTGRATATAAATEAYWAEHGQPPPGPSLYEESAIRGKIESRDETVPQSVREAFNNLNSTTSLTEENFGKPDISAKDLRNIMYDHLPGFGTAFHQLVQVICKLGKDSNSLDIIHAEFQASLAEGDSPQCALIQITKRVPIFQDAAPPVIHIRSRGDIPRACQKSLRPVPPSPKIDRGWVCVFQLQDGKTLGLKI
B1 was tested, and the “fold change of binding, T6-KO against wt A549 cells” value [1] was 6 fold and the “fold change of binding, with OTU-wt co-expression against without OTU” value [2] was 5 fold.

Source: paper PMC9119628 (PLoS Pathogens, 2022)
